First the molecules themselves.
B2: Shigella flexneri IpaH7.8 without affinity tag (co-expressed with GSDMB) (enzyme)
chain: MFSVNNTHSSVSCSPSINSNSTSNEHYLRILTEWEKNSSPGEERGIAFNRLSQCFQNQEAVLNLSDLNLTSLPELPKHISALIVENNKLTSLPKLPAFLKELNADNNRLSVIPELPESLTTLSVRSNQLENLPVLPNHLTSLFVENNRLYNLPALPEKLKFLHVYYNRLTTLPDLPDKLEILCAQRNNLVTFPQFSDRNNIRQKEYYFHFNQITTLPESFSQLDSSYRINISGNPLSTRVLQSLQRLTSSPDYHGPQIYFSMSDGQQNTLHRPLADAVTAWFPENKQSDVSQIWHAFEHEEHANTFSAFLDRLSDTVSARNTSGFREQVAAWLEKLSASAELRQQSFAVAADATESCEDRVALTWNNLRKTLLVHQASEGLFDNDTGALLSLGREMFRLEILEDIARDKVRTLHFVDEIEVYLAFQTMLAEKLQLSTAVKEMRFYGVSGVTANDLRTAEAMVRSREENEFTDWFSLWGPWHAVLKRTEADRWAQAEEQKYEMLENEYSQRVADRLKASGLSGDADAEREAGAQVMRETEQQIYRQLTDEVLALRLSENGSRLHHS
notes: only the LRR domain is visible in the map; source: E. coli BL21 (DE3), co-expressed with His6-SUMO-GSDMB, complex purified (Ni-NTA, Hitrap Q, Superdex 200)
B3: human GSDMB isoform 1 construct for cryo-EM, 3C protease site inserted after K239 (uncleaved, full length) (natural protein)
chain: MFSVFEEITRIVVKEMDAGGDMIAVRSLVDADRFRCFHLVGEKRTFFGCRHYTTGLTLMDILDTDGDKWLDELDSGLQGQKAEFQILDNVDSTGELIVRLPKEITISGSFQGFHHQKIKISENRISQQYLATLENRKLKRELPFSFRSINTRENLYLVTETLETVKEETLKSDRQYKFWSQISQGHLSYKHKGQREVTIPPNRVLSYRVKQLVFPNKETMSAGLDIHFRGKTKSFPEGKLEVLFQGPSLGSEDSRNMKEKLEDMESVLKDLTEEKRKDVLNSLAKCLGKEDIRQDLEQRVSEVLISGELHMEDPDKPLLSSLFNAAGVLVEARAKAILDFLDALLELSEEQQFVAEALEKGTLPLLKDQVKSVMEQNWDELASSPPDMDYDPEARILCALYVVVSILLELAEGPTSVSS
notes: human gasdermin B isoform 1 (Q8TAX9-1), full length, with a human rhinovirus 3C protease site (LEVLFQ/GP) inserted after residue K239; The methods say the 3C site is in 'the GSDMB construct used for cryo-EM structural determination'; source: E. coli BL21 (DE3), co-expressed with IpaH7.8, complex purified (Ni-NTA, Hitrap Q, Superdex 200); not shown: His6-SUMO, N-terminal, cleaved

The target in data set [1] is human GSDMB (isoform 1, Q8TAX9-1), full length (human). Nature of the data set: ITC; VP-ITC, 20 °C, 25 mM Tris-HCl pH 8.0, 150 mM NaCl; IpaH7.8 (200 μM) injected into GSDMB (10 μM), or IpaH7.8 (625 μM) into hGSDMD or mGSDMD (40 μM); 25 injections; one-site binding model.
Data set [2] deals with the molecule itself. The data set is described as follows: cryo-EM structure; GSDMB isoform 1 cleaved by 3C protease on liposomes, pores solubilised with C12E8 and purified on Superose 6; C24 symmetry, 4.96 Å (globular domain 4.48 Å).
Data set [3] deals with T1, human GSDMD, full length (human), P57764.
T1 chain: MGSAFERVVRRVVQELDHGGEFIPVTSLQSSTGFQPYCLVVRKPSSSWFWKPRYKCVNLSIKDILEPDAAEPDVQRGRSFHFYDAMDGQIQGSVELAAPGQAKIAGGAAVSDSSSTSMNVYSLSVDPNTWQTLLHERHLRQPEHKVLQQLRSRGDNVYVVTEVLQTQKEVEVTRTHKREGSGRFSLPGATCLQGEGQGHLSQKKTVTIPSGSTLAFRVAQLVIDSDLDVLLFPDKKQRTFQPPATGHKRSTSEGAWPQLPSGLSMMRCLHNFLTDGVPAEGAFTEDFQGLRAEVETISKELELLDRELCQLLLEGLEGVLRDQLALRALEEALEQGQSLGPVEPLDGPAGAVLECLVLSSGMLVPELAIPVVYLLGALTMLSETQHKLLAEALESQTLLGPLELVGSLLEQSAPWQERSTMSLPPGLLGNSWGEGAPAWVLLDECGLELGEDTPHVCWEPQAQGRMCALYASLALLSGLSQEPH
The data set is described as follows: ITC; VP-ITC, 20 °C, 25 mM Tris-HCl pH 8.0, 150 mM NaCl; IpaH7.8 (200 μM) injected into GSDMB (10 μM), or IpaH7.8 (625 μM) into hGSDMD or mGSDMD (40 μM); 25 injections; one-site binding model. The following applies: remark: other sources report otherwise. For orientation: ITC needs no label: the signal is the heat of the interaction.

Data set [4] has as its target B3. Nature of the data set: cryo-EM structure; GSDMB-IpaH7.8 complex co-expressed in E. coli and co-purified, 0.5 mg/ml, 25 mM HEPES pH 7.5, 150 mM NaCl; 3.8 Å. The following applies: both partners purified.
Data set [5] has as its target B2. The data set is described as above. The following applies: both partners purified.

“Shigella flexneri IpaH7.8 (wild type), C-terminal 6XHis construct (from UniProt P18014 1-565) (enzyme)” came in with a Kd in data set [1] of 0.44 µM. This counts as sub-micromolar.

B1: GSDMB isoform 1 pore subunit (N-terminal domain after 3C protease cleavage) (domain or fragment)
chain: MFSVFEEITRIVVKEMDAGGDMIAVRSLVDADRFRCFHLVGEKRTFFGCRHYTTGLTLMDILDTDGDKWLDELDSGLQGQKAEFQILDNVDSTGELIVRLPKEITISGSFQGFHHQKIKISENRISQQYLATLENRKLKRELPFSFRSINTRENLYLVTETLETVKEETLKSDRQYKFWSQISQGHLSYKHKGQREVTIPPNRVLSYRVKQLVFPNKETMSAGLDIHFRGKTKSFPEGKLEVLFQ
notes: human gasdermin B isoform 1 (Q8TAX9-1), from the start to K239, after which the 3C site was inserted; what is left of the 3C protease site (LEVLFQ/GP) after cleavage; Pores were 24-26-fold symmetric; GSDMB-C was removed by size exclusion; also called GSDMB pore; GSDMB prepore; source: E. coli BL21 (DE3), purified; cleaved by 3C protease on liposomes, pores extracted with C12E8 and purified on …
Regarding B1, in data set [2], the “stoichiometry N” value is 24.

B2 registered a Kd in data set [3] of 20.4 µM. Further, in data set [4], the “stoichiometry N” value is 1.

With B3, the binding result in data set [5] is listed as “binds”.

One may read the Kd as the concentration at which binding is half-saturated. A high value points to weaker binding. In general, stoichiometry N refers to the number of molecules, sites or subunits per partner or assembly.
